Patent US20140322218A1 (Amgen, published 2014)
Blank lines part the entries; values can stand above or below the binder they belong to.

How the values were obtained:
Experiment in all cases: FACS, transfected 293T
[1] = biological target: T1, muCDH19(44-139)::huCDH19(142-364)::muCDH19(363-770), Flag-tagged, on 293T cells (human/mouse chimera)
T1 construct: also called Hu EC2-3; C137847
Source text: (§1) The experiment included assaying the anti-CDH19 antibodies against mouse Cadherin19 to determine suitability for binning on these human/mouse chimeras.

[2] = biological target: T2, muCDH19(44-362)::huCDH19(365-772), Flag-tagged, on 293T cells (human/mouse chimera)
T2 construct: also called Hu EC4-5; C137917
T2 chain: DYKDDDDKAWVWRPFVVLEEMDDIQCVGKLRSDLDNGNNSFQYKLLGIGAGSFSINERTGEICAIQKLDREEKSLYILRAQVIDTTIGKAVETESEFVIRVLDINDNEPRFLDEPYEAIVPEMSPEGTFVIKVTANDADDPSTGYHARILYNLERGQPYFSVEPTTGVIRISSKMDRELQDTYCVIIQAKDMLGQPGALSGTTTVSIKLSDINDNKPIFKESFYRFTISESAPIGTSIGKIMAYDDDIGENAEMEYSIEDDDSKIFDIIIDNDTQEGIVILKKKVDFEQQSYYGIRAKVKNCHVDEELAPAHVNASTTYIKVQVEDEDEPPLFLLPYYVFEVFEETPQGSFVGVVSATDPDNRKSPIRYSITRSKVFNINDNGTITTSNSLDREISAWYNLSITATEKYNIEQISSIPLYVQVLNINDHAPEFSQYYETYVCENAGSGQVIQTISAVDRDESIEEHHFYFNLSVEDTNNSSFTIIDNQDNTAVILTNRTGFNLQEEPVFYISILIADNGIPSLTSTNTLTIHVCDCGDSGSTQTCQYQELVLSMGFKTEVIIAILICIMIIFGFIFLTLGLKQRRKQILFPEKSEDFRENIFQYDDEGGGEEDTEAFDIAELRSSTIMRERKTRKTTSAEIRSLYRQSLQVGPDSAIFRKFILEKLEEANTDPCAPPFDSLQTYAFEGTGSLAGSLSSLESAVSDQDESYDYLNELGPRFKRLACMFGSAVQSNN
Source text: as §1

[3] = biological target: T3, muCDH19(44-139)::huCDH19(142-249)::muCDH19(248-770), Flag-tagged, on 293T cells (human/mouse chimera)
T3 construct: also called Hu EC2; C137913
T3 chain: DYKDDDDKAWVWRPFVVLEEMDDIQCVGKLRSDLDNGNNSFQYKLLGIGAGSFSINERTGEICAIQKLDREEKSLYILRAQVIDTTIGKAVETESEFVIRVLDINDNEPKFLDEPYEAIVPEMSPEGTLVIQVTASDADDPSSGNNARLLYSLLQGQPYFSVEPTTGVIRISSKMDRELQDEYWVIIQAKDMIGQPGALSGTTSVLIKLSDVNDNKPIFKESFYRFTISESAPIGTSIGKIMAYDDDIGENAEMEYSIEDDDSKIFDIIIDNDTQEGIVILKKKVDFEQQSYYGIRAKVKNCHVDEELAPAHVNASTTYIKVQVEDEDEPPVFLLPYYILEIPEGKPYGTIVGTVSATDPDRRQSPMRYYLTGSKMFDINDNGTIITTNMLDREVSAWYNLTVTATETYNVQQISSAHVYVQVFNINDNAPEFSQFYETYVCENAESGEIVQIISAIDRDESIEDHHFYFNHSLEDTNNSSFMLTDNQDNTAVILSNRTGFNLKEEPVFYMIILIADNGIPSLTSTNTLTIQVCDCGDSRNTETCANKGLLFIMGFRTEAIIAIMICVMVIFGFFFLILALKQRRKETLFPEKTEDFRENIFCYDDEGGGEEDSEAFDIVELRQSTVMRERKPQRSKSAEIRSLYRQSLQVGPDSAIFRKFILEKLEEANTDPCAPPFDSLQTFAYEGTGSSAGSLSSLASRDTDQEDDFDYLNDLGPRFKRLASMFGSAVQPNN
Source text: as §1

[4] = biological target: T4, muCDH19(44-461)::huCDH19(464-772), Flag-tagged, on 293T cells (human/mouse chimera)
T4 construct: also called Hu EC5; C137915
T4 chain: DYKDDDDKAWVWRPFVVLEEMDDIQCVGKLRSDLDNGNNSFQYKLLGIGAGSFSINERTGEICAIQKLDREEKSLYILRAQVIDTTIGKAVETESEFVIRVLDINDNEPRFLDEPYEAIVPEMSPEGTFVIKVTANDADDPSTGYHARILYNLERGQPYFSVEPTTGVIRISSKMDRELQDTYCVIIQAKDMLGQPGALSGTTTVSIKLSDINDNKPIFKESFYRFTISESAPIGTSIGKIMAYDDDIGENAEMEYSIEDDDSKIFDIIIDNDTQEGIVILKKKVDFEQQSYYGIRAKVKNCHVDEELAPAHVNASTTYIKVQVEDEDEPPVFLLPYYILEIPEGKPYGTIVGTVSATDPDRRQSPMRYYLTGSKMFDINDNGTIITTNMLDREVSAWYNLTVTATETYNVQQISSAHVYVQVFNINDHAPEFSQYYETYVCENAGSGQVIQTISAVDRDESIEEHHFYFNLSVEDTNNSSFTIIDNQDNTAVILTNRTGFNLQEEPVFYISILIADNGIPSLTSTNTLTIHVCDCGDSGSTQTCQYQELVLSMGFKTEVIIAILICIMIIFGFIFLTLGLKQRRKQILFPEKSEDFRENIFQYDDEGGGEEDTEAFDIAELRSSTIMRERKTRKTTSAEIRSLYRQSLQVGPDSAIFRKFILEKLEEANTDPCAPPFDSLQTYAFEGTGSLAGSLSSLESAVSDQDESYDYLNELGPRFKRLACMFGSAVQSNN
Source text: as §1

- binding result [1]: binds
B1: hu anti-<huCDH19> 4B10 VH::huIgG1z / 4B10 VL::huKLC (Ab ID 13590) (antibody, V domains shown)
VH: QVQLVESGGGVVQPGRSLRLSCAASGFTFSSYDMHWVRQAPGKGLEWVAVISYDGTNEYYADSVKGRFTISRDTSKNTLYLQMNSLRAEDTAVYYCARERYFDWSFDYWGQGTLVSVSS
VL: EIVLTQSPGTLSLSPGERATLSCRASQSVSNTYLAWYHQRPGQAPRLLIYGASSRATGIPDRFSGSGSGTDFALTISSLEPEDFAVYYCQQYSNSWTFGQGTKVEIKR

- binding result [1]: binds
- binding result [2]: binds
- binding result [3]: binds
- binding result [4]: binds
B2: anti-CDH19 antibody 2G6 (Ab ID 13588) (antibody, human IgG1, lambda, V domains shown)
VH: QVQLVESGGGVVQPGRSLRLSCAASGFTFSSYGMHWVRQAPGKGLEWVAFIWYDGSNKYYADSVKDRFTISRDNSKNTLYLQMKSLRAEDTAVYYCARRAGIIGTIGYYYGMDVWGQGTTVTVSS
VL: SYELTQPPSVSVSPGQTASITCSGDRLGEKYTCWYQQRPGQSPLLVIYQDTKRPSGIPERFSGSNSGNTATLTISGTQAMDEADYYCQAWDSSTVVFGGGTKLTVLG
